According to patent US20240325557A1 (INNATE PHARMA, published 2024):

T1: huNectin4-C1C2-V5 (C1C2 construct, lacking the Ig-like V domain) (human, UniProt Q96NY8 148-510)
T1 construct: Expressed on CHO cells; also called Hu-Nectin4 IgC1C2-V5; Nectin4-C1C2-V5 sorted cells
T1 sequence: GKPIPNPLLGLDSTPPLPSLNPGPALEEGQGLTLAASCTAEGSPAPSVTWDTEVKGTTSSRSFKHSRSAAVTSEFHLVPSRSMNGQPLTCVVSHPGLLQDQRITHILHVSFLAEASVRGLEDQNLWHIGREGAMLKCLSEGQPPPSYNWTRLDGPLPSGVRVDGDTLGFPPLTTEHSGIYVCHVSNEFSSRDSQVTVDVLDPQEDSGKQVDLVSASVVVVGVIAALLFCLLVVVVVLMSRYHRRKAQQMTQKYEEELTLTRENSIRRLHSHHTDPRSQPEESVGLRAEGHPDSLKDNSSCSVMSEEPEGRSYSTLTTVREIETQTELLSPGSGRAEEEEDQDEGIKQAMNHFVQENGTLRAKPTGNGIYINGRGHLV

T2: human Nectin-4 Mutant 1 (human, UniProt Q96NY8 32-510)
T2 construct: Expressed on transfected HEK-293T cells; also called S58P/G59D/Q61A/N106D/P107A
T2 chain: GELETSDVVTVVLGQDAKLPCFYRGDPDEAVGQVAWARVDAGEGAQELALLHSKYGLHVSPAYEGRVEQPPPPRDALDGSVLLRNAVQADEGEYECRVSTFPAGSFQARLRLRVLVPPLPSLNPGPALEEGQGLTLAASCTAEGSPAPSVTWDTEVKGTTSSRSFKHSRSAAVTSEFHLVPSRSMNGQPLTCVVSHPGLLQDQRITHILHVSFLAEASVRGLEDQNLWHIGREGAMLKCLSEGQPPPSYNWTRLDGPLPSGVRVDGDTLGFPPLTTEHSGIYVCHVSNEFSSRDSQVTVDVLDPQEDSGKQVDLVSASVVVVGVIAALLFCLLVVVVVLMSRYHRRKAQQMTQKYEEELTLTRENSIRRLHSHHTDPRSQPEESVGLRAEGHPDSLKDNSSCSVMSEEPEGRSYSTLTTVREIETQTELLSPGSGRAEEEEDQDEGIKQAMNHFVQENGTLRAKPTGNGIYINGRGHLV

T3: monomeric huNectin4-his-BirA protein (human, UniProt Q96NY8 32-349)
T3 construct: also called Human Nectin4-His-BirA; huNectin4-BirA
T3 sequence: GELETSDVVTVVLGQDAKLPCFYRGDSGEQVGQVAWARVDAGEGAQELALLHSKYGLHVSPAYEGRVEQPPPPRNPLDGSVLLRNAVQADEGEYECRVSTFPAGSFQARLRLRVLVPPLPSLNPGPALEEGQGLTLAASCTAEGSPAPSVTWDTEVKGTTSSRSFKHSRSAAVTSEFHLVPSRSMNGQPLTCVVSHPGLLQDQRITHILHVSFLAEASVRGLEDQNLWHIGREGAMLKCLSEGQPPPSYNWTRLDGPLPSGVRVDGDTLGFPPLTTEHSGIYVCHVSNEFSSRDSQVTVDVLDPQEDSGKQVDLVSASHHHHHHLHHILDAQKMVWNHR

T4: human PVR on CHO cells (human, UniProt P15151 28-417)
T4 construct: also called PVR (Nectin-5)
T4 sequence: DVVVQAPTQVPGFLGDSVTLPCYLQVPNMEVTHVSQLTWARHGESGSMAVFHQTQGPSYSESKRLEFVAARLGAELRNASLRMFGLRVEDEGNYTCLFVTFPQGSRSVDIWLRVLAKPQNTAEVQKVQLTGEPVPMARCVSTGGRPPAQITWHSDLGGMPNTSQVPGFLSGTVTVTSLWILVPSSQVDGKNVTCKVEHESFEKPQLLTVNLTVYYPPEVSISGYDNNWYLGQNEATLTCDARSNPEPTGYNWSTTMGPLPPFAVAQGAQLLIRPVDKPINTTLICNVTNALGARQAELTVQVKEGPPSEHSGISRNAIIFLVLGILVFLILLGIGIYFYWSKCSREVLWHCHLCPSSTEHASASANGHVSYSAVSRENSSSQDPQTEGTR

T5: wild-type human Nectin-4 on the CHO huNectin4 Cl.3C8 cell line (human, UniProt Q96NY8 32-510)
T5 construct: also called whole Nectin-4 protein; huNectin4 CI.3C8
T5 sequence: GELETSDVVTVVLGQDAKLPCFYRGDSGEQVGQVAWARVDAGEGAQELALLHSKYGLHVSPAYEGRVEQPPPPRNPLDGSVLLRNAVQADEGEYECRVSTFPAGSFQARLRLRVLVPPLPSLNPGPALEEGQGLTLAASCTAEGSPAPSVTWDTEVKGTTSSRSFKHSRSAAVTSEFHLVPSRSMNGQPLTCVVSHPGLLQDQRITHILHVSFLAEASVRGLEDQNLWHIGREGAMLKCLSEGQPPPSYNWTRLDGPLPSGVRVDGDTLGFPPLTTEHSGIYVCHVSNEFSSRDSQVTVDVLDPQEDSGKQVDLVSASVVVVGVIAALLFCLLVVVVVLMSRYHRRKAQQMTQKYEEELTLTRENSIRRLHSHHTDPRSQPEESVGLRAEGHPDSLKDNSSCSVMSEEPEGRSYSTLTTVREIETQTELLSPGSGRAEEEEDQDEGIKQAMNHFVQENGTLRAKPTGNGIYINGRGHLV

T6: human Nectin 1 on CHO cells (human, UniProt Q15223 31-517)
T6 sequence: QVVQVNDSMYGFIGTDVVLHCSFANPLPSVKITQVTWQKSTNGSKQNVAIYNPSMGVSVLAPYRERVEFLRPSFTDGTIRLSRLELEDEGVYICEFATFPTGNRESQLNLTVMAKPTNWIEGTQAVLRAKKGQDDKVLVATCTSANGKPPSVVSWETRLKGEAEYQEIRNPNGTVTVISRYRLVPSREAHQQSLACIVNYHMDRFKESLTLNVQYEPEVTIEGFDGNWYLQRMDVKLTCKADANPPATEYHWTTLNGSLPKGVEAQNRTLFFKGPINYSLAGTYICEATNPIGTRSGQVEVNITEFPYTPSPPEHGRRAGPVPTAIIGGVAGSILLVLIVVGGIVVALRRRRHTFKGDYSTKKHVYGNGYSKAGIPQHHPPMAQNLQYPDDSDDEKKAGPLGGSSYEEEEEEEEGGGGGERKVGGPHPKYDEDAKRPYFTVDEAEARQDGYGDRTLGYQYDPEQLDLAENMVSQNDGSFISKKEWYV

T7: human Nectin 2 on CHO cells (human, UniProt Q92692 32-538)
T7 sequence: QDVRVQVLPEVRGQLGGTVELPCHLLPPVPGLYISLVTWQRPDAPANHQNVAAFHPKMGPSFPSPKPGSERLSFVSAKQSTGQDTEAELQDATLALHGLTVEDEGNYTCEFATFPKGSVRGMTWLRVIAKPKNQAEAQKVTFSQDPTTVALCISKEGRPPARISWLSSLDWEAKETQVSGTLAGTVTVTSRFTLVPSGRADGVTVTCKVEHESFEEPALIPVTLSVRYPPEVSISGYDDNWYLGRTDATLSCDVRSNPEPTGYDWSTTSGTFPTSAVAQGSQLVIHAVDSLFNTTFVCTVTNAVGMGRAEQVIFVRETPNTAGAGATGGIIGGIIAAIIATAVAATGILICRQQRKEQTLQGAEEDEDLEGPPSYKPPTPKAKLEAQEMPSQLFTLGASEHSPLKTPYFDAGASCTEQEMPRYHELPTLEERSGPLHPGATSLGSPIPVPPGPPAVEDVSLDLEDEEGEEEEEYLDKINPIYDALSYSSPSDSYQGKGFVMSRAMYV

T8: human Nectin-4 Mutant 3 (human, UniProt Q96NY8 32-510)
T8 construct: Expressed on transfected HEK-293T cells; also called A76S/Q77R/E78A/S91N
T8 chain: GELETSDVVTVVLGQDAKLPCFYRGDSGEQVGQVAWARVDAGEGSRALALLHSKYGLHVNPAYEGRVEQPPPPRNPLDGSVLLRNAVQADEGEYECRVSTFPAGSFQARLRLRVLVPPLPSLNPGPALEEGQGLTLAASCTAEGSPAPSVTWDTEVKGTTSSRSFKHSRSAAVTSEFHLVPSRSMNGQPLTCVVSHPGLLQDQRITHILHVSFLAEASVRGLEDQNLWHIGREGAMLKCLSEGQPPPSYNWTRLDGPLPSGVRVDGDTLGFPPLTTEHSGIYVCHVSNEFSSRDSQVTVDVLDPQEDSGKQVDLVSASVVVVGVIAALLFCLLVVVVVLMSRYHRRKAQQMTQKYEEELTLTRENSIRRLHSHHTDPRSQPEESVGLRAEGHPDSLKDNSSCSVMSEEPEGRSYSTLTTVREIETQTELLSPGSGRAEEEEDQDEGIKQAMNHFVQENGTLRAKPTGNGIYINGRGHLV


What was measured:
[1] = biological target: T1, huNectin4-C1C2-V5 (C1C2 construct, …); assay: flow cytometry on huNectin4-C1C2-V5 CHO cells
Method: The characterization of the binding of the antibodies on Nectin-4 domains was performed by flow cytometry using cells made to express the wild-type human Nectin-4 protein and cells made to express a modified Nectin-4 having the Ig-like C₂ type 1 and the Ig-like C₂ type 2 domains and lacking the Ig-like V domain (the C1C2 construct). The latter protein additionally bears a V5 tag for flow cytometry cell sorting, and cells were used as Nectin4-C1C2-V5 sorted cells.

human Nectin-4 Mutant 1 = biological target: T2, human Nectin-4 Mutant 1; assay: binding to HEK-293T cells transfected with the Nectin-4 mutant
[2] = biological target: T3, monomeric huNectin4-his-BirA protein; assay: SPR (Biacore T200), antibody captured on Protein A, monomeric huNectin4-his-BirA injected
Method: Antibodies were tested for binding affinity to the wild-type human Nectin-4 protein by SPR (Surface Plasmon Resonance) methods. Measurements were performed on a Biacore T200 apparatus (Biacore GE Healthcare) at 25° C. Sensorgrams were analyzed with Biacore T100 Evaluation software. A CMR Sensor Chip with immobilized Protein A at about 600 RU was used. Anti-Nectin-4 antibodies were captured onto the Protein-A chip (antibodies diluted to 1 μg/ml in HBS-EP+1× buffer and injected over 120s at 40 μL/min). […] The chip was regenerated with NaOh 10 mM 2× for 30s at 40 μl/min. The sensorgram sets were fitted using the 1:1 kinetic binding model or two state reaction model, as a function of the profile of the curves.

[3] = biological target: T1, huNectin4-C1C2-V5 (C1C2 construct, …); assay: flow cytometry on Nectin4-C1C2-V5 sorted cells
human PVR on CHO cells = biological target: T4, human PVR on CHO cells; assay: flow cytometry on CHO cells expressing human PVR
Method: (§1) Anti-Nectin-4 antibodies were tested by flow cytometry for binding to different CHO cell lines made to express respectively the human Nectin 1, Nectin 2, Nectin 3 and PVR proteins. The expression of each cell lines was controlled and validated with known respectively the anti-human Nectin1, anti-human Nectin2, anti-human Nectin3 and anti-human PVR antibodies. The mature amino acid sequence of the proteins expressed by the cells were as follows:
(§2) Nectin 1, Nectin 2, Nectin 3 and PVR proteins as in Example 12. […] Epitope mapping was carried out by assessing competition for binding to Nectin-4 by SPR as in Example 14.

[4] = biological target: T5, wild-type human Nectin-4 on the CHO …; assay: flow cytometry on wild-type human Nectin-4 cell line
[5] = biological target: T6, human Nectin 1 on CHO cells; assay: flow cytometry on CHO cells expressing human Nectin 1
Method: as §1, §2

[6] = biological target: T7, human Nectin 2 on CHO cells; assay: flow cytometry on CHO cells expressing human Nectin 2
Method: as §1, §2

human Nectin-4 Mutant 3 = biological target: T8, human Nectin-4 Mutant 3; assay: binding to HEK-293T cells transfected with the Nectin-4 mutant

Binder	binding result [1]	binding result (human Nectin-4 Mutant 1)	Kd [2]	koff [2]	kon [2]	binding result [3]	binding result (human PVR on CHO cells)	binding result [4]	binding result [5]	binding result [6]	binding result (human Nectin-4 Mutant 3)
antibody N41 (antibody, V domains shown, Comparator anti-Nectin-4 antibody) VH: QVQLKQSGPGLVQPSQSLSITCTVSGFSLTNYGVHWVRQSPGKGLEWLGVIWSGGSTDYNAAFISRLSISKDTSKSQVFFKMNSLQADDTAIYYCARELIHAMDNWGQGTSVTVSS VL: DIQMTQSPASLSVSVGETVTITCRASENIYSNLAWYQQKQGNSPQLLVFAATNLADGVPSRFSGSGSGTQYSLKINSLQSEDFGTYYCQHFWGTPTFGGGTKLEIK	no binding	no binding	1.5 nM	0.00087 s⁻¹	580000 M⁻¹ s⁻¹	–	–	–	–	–	–
antibody 6C11B (antibody, human IgG1, V domains shown, also called 6CB11; CHG1-M-4N4-6C11B) VH: EVQLQQSGPELVKPGASVKISCKTSGYTFTEYTIHWVKQNHGKSLEWIGRINPKNGDIIHNQNFMGKATLTVDKSSSTAYMELRSLTSEDSAVCYCARSGYGSSYGFAYWGQGTLVTVSA VL: DIVMTQSPTSLVVSLGQRATISCRASQSVTTPRYSYMHWYQQKPGQPPKLLIKYASNLESGVPARFSGSGSGTDFTLNIHPVEEEDTATYYCQHSWEIPYTFGGGTKLEIK	–	–	–	–	–	binds	no binding	binds	no binding	no binding	no binding
